B1: B1-2 (antibody, V domains shown)
VH: QVQLVESGGGFVQPGGSLRLSCAVSGGTFSTYGMGWFRQAPGKEREIVAAIRRSGSTYYADSVRGRFTISRDNAKNSVLLQMNSLKPEDTAVYYCAARRAGREYEYWGQGTQVTVSS
B2: A2-2 (antibody, V domains shown)
VH: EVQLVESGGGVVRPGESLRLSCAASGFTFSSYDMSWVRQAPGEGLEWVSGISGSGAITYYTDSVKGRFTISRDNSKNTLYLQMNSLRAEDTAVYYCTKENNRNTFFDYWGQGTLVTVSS
VL: EIVLTQSPGTLSLSPGERATLSCRASQTVRSDLAWYQQKPGQAPRLLIYGASTRATDISDRFSGSGSGTEFTLTISSLQSEDFAVYYCQQYYEWPPHSDSFGGGTKVEIK
B3: B1-1 (antibody, V domains shown)
VH: QVQLVESGGGLVQPGGSLRLSCAASGFTFDDYAMSWVRQAPGKGLEWVSNIYSYISTTHYADSVKGRFTISTDNAKNTLYLQMNSLKPEDTAVYYCAARRLDTTDYKYWGQGTQVTVSS
B4: A2-4 (antibody, V domains shown)
VH: EVKLMESGGGLVQPGGSLKLSCAASGFDFSRYWMSWVRQAPGEGLEWIGEINPDSSTISYTPSLKDKFIISRDNAKNTLYLQMSKVRSEDTALYYCARRGLLLLTMDYWGQGTSVTVSS
VL: DIVMTQSPKSLSMSVGERVTLSCKASENVDTYVSWYQQKPEQSPKLLIYGASNRYTGVPDRFTGSGSATYFTLTISSVQAEDLADYHCGQTYSYPFTFGSGTKLEIK
B5: Mouse anti-SARS-COV-2 Mab1(RBD-Ab) (antibody, V domains shown)
VH: VKLQESGAELVRPGTSVKVSCKASGYAFTNYLIEWVKQRPGQGLEWIGVINPGSGGTNYNEKFKGKATLTADKSSSTAYMQLSSLTSDDSAVYFCARGRADYWGQGTSVTVSS
VL: DILMTQSPSSMSVSLGDTVSITCHASQGFSSNIGWLQQKPGKSFKGLIYHGTNLEDGVPSRFSGSGSGADYSLTISSLESEDFADYYCVQYAQFPYTFGGGTKLEIK
notes: also called B1-5; B1-5号抗体

Legend:
[1] = target: T1, SARS-CoV-2-RBD蛋白 (重组6X His标记的RBD蛋白) (SARS-CoV-2, UniProt P0DTC2 319-541); experiment: indirect ELISA, purified antibody, antigen coated 3ug/ml
[2] = target: T1, SARS-CoV-2-RBD蛋白 (重组6X His标记的RBD蛋白); experiment: indirect ELISA, ascites, antigen coated 3ug/ml
[3] = target: T2, SARS-CoV Spike/RBD Protein(RBD,His Tag)，货号40150-V08B2 (SARS-CoV, UniProt P59594 306-527); experiment: ELISA, cross-reactivity test
T2 construct: domain: RBD

[4] = target: T3, MERS-CoV Spike/RBD Protein fragment(RBD,aa 367-606,His Tag)，货号40071-V08B1 (MERS-CoV, UniProt K9N5Q8 367-606); experiment: ELISA, cross-reactivity test
T3 construct: range 367-606; Bought reagent

| Binder | ELISA OD at 1.28ng/ml [1] | ELISA OD at 6.4ng/ml [1] | ELISA OD at 32ng/ml [1] | ELISA OD at 160ng/ml [1] | ELISA OD at 800ng/ml [1] | ELISA OD at 4ug/ml [1] | ELISA OD at 20ug/ml [1] | ELISA OD at 稀释倍数 100 [2] | ELISA OD at 稀释倍数 500 [2] | ELISA OD at 稀释倍数 2500 [2] | ELISA OD at 稀释倍数 12500 [2] | ELISA OD at 稀释倍数 62500 [2] | ELISA OD at 稀释倍数 312500 [2] | ELISA OD at 稀释倍数 1562500 [2] | binding result [3] | binding result [4] |
| --- | --- | --- | --- | --- | --- | --- | --- | --- | --- | --- | --- | --- | --- | --- | --- | --- |
| B1 | 0.073 | 0.085 | 0.127 | 0.26 | 0.647 | 1.49 | 2.04 | 1.85 | 1.61 | 1 | 0.297 | 0.118 | 0.091 | 0.081 | – | – |
| B2 | 0.115 | 0.229 | 0.447 | 0.689 | 1.27 | 1.62 | 1.72 | 1.53 | 1.49 | 1.46 | 1.06 | 0.508 | 0.155 | 0.077 | – | – |
| B3 | 0.072 | 0.088 | 0.154 | 0.38 | 0.929 | 1.19 | 1.35 | 1.43 | 1.31 | 1.4 | 1.26 | 0.545 | 0.19 | 0.084 | – | – |
| B4 | 0.106 | 0.126 | 0.149 | 0.279 | 0.584 | 1.33 | 1.95 | 1.39 | 1.36 | 1.43 | 0.84 | 0.373 | 0.121 | 0.072 | – | – |
| B5 | – | – | – | – | – | – | – | – | – | – | – | – | – | – | no binding | no binding |

From patent publication CN114106164A (HANGZHOU PINK BIOTECHNOLOGY LTD COMPANY, dated 2022)
